Where two headings read alike, the source gives them in different places.

Data set [1] concerns CCCCCCCCCCCCCC(=O)SCCNC(=O)CCNC(=O)[C@H](O)C(C)(C)COP(=O)(O)OP(=O)(O)OC[C@H]1O[C@@H](n2cnc3c(N)ncnc32)[C@H](O)[C@@H]1OP(=O)(O)O. The data set is described as follows: purified protein.
Substrate in data set [2]: CCCCCCCCCCCCCC(=O)SCCNC(=O)CCNC(=O)[C@H](O)C(C)(C)COP(=O)(O)OP(=O)(O)OC[C@H]1O[C@@H](n2cnc3c(N)ncnc32)[C@H](O)[C@@H]1OP(=O)(O)O
As to the kind of experiment: purified protein. This is another data set of the same source.

Take human NMT1 (Homo sapiens): the Km in data set [1] was 8.24 ± 0.62 µM.

B1: human NMT2 (Homo sapiens) (protein)
chain: AKHRYQFWDTQPVPKLDEVITSHGAIEPDKDNVRQEPYSLPQGFMWDTLDLSDAEVLKELYTLLNENYVEDDDNMFRFDYSPEFLLWALRPPGWLLQWHCGVRVSSNKKLVGFISAIPANIRIYDSVKKMVEINFLCVHKKLRSKRVAPVLIREITRRVNLEGIFQAVYTAGVVLPKPIATCRYWHRSLNPRKLVEVKFSHLSRNMTLQRTMKLYRLPDVTKTSGLRPMEPKDIKSVRELINTYLKQFHLAPVMDEEEVAHWFLPREHIIDTFVVESPNGKLTDFLSFYTLPSTVMHHPAHKSLKAAYSFYNIHTETPLLDLMSDALILAKSKGFDVFNALDLMENKTFLEKLKFGIGDGNLQYYLYNWRCPGTDSEKVGLVLQ
Regarding B1, in data set [2], the Km was found to be 7.24 ± 0.79 µM.

The values above are taken from paper PMC3863716.
